Measured values published in patent publication US20260226194A1 (GlaxoSmithKline, published 2026).
Where a chain is given by its changes, count along the chain named. Names may count otherwise.

Experiments:
[1] = target: T1, recombinant human PAPPA (pregnancy associated plasma protein-A) (human, UniProt Q13219 82-1627); test: cell-based or functional assay
[2] = target: T2, endogenous human PAPPA natively secreted by human cells (A549; 9-7) (human, UniProt Q13219 82-1627); test: cell-based or functional assay
[3] = target: T1, recombinant human PAPPA (pregnancy …); test: cell-based or functional assay; remark: listed apart in the source
[4] = target: T2, endogenous human PAPPA natively …; test: cell-based or functional assay; remark: listed apart in the source
recombinant mouse PAPPA [5] = target: T3, recombinant mouse PAPPA (mouse, UniProt Q8R4K8 82-1624, limits assumed); test: cell-based or functional assay
[6] = target: T4, recombinant cynomolgus monkey PAPPA (cynomolgus monkey, UniProt A0A2K5WE98 87-1619); test: cell-based or functional assay
[7] = target: T1, recombinant human PAPPA (pregnancy …); test: cell-based or functional assay; remark: listed apart in the source
[8] = target: human PAPPA (Common variant) (human); test: SPR, Biacore 8K+, mAb captured on PrismA chip, PAPPA as analyte, 37 C, mean of n=3
Method: (§1) Binding of TPP12744 to recombinant human, cynomolgus monkey and rabbit PAPPA was assessed using capture kinetics method on BIACORE 8K+ (Cytiva) SPR instrument. The antibodies, including controls, were captured on PrismA biosensor surface (Cytiva) at injection rate of 10 μl/min. Analytes were injected at injection rate of 30 μl/min over the captured antibodies as a concentration series including eight 2× serial dilutions with the highest concentration of 32 nM. Association phase was 160 seconds, followed by a dissociation phase of 600 seconds. Buffer only (OnM analyte) injection was used to double reference the binding curves. Regeneration of the chip surface between cycles was carried out using 10 mM Glycine pH 1.5. The assay was run at 37° C. in HBS-EP+ buffer with 0.1% BSA to minimize the nonspecific binding of the analytes to the chip surface. TPP12744 was analyzed as three independently prepared replicates.
(§2) The final screening process was conducted using the following criteria. Firstly, antibodies were checked for affinity to human PAPPA (method #4). Only antibodies with low nanomolar affinity for human PAPPA were retained. For one antibody (TPP12744) binding to PAPPA was assessed at 37° C. using the methodology described in Example 1, method #6.

[9] = target: T1, recombinant human PAPPA (pregnancy …); test: as above
Method: as §1, §2

[10] = target: T4, recombinant cynomolgus monkey PAPPA; test: as above
Method: as §1, §2

[11] = target: T1, recombinant human PAPPA (pregnancy …); test: cell-based or functional assay; remark: listed apart in the source
[12] = target: T2, endogenous human PAPPA natively …; test: cell-based or functional assay; remark: listed apart in the source
rat PAPPA = rat PAPPA (rat, UniProt A0ABK0LMY4 80-1624); test: SPR (Biacore 8K+, captured mAb, 37 C); data not shown
recombinant mouse PAPPA [13] = target: T3, recombinant mouse PAPPA; test: as above

T4 sequence (A0A2K5WE98 entry or part of it): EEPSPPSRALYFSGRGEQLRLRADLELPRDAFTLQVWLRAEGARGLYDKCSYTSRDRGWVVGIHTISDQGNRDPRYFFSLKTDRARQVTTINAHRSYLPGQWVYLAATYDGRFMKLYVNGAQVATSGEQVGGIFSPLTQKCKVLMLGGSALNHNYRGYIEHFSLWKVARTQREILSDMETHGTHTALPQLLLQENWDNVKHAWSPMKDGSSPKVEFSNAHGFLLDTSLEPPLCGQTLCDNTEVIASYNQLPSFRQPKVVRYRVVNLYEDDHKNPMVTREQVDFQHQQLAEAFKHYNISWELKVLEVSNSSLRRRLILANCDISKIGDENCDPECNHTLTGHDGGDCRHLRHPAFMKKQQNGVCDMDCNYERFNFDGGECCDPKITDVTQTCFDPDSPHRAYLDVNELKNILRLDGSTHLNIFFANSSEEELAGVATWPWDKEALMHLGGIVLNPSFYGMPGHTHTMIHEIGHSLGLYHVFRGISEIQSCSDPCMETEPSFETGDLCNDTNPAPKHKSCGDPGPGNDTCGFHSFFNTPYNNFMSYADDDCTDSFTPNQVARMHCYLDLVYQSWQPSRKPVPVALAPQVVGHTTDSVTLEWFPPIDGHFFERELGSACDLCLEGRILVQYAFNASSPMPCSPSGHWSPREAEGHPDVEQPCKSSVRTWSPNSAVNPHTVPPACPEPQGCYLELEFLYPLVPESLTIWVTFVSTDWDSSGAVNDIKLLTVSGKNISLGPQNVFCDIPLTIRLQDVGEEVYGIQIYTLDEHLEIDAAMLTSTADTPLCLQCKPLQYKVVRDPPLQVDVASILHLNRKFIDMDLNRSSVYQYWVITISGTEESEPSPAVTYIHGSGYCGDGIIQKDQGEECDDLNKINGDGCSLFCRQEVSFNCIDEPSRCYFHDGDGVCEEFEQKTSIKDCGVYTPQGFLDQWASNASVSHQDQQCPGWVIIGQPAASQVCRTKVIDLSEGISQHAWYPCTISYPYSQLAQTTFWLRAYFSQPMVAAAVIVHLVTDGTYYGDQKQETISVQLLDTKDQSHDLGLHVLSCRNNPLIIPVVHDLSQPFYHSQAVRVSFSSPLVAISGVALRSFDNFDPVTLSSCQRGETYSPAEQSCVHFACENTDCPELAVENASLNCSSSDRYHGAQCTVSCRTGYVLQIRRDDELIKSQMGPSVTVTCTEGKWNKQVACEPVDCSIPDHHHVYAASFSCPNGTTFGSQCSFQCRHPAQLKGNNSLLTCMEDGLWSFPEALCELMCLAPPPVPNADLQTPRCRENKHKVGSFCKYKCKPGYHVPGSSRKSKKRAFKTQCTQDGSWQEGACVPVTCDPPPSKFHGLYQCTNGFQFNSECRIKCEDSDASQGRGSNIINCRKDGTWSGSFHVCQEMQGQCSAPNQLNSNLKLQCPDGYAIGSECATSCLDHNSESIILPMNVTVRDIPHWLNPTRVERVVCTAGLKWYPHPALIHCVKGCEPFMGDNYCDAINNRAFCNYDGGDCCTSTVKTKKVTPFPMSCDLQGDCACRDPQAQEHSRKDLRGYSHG
T3 sequence (Q8R4K8 82-1624 limits assumed): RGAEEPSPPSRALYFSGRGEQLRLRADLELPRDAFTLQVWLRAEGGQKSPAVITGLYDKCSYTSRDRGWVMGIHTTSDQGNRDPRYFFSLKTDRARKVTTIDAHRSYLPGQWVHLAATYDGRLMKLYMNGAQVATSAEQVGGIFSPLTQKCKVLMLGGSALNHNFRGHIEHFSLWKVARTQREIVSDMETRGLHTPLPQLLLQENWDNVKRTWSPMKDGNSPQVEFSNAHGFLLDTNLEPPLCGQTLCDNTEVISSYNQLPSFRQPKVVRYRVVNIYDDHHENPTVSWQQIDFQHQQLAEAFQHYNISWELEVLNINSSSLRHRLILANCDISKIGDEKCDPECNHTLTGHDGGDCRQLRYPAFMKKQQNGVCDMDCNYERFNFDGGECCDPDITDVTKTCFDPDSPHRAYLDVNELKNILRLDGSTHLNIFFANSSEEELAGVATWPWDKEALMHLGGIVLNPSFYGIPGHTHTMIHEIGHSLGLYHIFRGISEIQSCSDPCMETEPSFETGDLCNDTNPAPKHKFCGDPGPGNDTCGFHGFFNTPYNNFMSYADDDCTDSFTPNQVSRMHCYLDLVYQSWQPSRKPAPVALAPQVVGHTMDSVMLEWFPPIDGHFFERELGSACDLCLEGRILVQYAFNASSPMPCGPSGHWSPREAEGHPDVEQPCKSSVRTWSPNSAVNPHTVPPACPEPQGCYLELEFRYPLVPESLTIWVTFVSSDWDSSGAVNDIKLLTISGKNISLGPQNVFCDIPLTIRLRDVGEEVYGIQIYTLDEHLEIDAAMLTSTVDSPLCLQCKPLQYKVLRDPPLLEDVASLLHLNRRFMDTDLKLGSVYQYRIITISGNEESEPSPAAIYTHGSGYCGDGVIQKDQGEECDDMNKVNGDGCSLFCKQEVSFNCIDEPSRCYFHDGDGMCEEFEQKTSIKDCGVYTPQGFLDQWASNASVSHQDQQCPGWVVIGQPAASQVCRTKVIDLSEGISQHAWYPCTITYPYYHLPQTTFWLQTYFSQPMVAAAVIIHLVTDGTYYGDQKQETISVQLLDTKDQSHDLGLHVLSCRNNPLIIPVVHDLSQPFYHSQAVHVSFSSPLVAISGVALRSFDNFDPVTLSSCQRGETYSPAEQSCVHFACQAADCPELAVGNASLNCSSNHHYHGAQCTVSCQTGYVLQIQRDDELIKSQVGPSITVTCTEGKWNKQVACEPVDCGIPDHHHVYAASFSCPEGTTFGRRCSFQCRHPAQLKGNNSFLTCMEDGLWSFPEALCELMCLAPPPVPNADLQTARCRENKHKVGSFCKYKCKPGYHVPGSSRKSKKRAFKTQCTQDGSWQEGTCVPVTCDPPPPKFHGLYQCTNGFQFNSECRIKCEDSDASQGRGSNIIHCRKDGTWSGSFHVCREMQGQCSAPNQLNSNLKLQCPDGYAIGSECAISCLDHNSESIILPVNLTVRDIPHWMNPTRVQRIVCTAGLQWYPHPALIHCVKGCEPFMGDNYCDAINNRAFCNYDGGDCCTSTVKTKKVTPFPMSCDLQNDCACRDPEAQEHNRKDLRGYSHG
T2 sequence (Q13219 82-1627 limits assumed): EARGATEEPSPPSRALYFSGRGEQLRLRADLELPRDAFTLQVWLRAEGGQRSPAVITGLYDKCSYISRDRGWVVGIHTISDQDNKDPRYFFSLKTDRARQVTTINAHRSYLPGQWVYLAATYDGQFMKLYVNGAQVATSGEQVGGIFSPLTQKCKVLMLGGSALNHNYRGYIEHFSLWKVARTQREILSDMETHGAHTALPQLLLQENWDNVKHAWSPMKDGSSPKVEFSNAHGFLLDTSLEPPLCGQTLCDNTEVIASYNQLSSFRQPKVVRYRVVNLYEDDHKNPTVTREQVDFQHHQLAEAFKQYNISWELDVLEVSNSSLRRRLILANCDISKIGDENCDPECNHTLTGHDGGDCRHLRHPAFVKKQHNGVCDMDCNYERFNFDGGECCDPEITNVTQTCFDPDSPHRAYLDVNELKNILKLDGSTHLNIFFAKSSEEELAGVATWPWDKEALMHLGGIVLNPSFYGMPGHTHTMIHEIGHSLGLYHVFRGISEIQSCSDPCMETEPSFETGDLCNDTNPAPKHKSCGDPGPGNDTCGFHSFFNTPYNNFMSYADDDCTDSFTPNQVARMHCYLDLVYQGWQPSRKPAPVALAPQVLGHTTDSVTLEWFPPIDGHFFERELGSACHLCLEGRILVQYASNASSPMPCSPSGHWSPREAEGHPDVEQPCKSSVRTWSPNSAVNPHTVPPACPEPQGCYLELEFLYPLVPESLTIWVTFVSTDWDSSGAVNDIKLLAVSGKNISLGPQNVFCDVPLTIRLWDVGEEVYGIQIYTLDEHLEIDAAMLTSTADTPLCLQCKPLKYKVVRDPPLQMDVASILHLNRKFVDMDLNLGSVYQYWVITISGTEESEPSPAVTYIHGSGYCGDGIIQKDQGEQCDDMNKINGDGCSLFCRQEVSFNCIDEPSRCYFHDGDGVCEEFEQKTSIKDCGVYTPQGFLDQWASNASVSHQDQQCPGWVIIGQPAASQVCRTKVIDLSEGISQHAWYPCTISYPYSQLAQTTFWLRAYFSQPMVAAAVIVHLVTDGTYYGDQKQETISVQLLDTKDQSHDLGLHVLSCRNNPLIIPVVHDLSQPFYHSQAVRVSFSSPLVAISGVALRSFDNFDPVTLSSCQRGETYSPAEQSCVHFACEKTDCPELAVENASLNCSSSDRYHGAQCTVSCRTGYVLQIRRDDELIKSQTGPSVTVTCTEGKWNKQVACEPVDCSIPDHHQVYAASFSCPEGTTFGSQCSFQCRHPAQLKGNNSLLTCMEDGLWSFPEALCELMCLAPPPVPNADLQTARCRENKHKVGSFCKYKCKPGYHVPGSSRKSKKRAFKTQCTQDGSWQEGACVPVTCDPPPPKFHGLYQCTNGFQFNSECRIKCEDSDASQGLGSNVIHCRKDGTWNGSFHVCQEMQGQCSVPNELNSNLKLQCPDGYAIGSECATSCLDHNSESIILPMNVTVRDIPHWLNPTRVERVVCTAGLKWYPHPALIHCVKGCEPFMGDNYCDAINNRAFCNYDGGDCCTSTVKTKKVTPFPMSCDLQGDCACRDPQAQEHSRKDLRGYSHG
T1 sequence (Q13219 82-1627 limits assumed): as above

B1: TPP-12681 (antibody, human IgG1, kappa, V domains shown)
VH: EVQLVQSGAEVKKPGESLKISCKGSGYSFTSYWTGWVRQAPGKGLEWMGIIYPGGSVARYSPSFQGQVTISADKSISTAYLQWSSLKASDTAVYYCARGPLRSDYPDVWGQGTMVTVSS
VL: EIVMTQSPATLSVSPGERATLSCRASQSVGSYLAWYQQKPGQAPRLLIYRGSTRATGIPARFSGSGSGTEFTLTISSLQSEDFAVYYCQQPYVWPITFGGGTKVEIKR
B1 was tested, and the “PAPP-A cleavage of IGFBP-4 Mean pIC50” value [1] was 10.1 pIC50, the “EC50 (read off the curve)” value [2] was roughly 0.1 nM and the “rec. Human PAPP-A IGFBP4 pIC50 (G-401 pAKT assay)” value (“rec. Human PAPP-A IGFBP4 pIC50” below) [3] was 9.57 pIC50. The “rec. Human PAPP-A IGFBP5 pIC50 (G-401 pAKT assay)” value (“rec. Human PAPP-A IGFBP5 pIC50” below) [3] was 9.68 pIC50, the “A549 cells endogenous human PAPP-A pIC50 (A549 pAKT assay)” value (“A549 cells endogenous human PAPP-A pIC50” below) [4] was 9.7 pIC50 and the “rec. Mouse PAPP-A IGFBP4 pIC50 (G-401 pAKT assay)” value (“rec. Mouse PAPP-A IGFBP4 pIC50” for short) (recombinant mouse PAPPA [5]) was 9.51 pIC50. For the same binder, the “rec. Cyno PAPP-A IGFBP4 pIC50 (G-401 pAKT assay)” value (“rec. Cyno PAPP-A IGFBP4 pIC50” for short) [6] was 9.46 pIC50.

B2: TPP-12821 (antibody, human IgG1, kappa, V domains shown)
VH: B1 VH with Y32D, T34I, V57D, A58T, Q65R, P106V
VL: B1 VL with Y32N, G51A
In the case of B2, the “PAPP-A cleavage of IGFBP-4 Mean pIC50” value [1] is reported as 10.5 pIC50, the “PAPP-A cleavage of IGFBP-5 Mean pIC50” value [7] is reported as 9.1 pIC50 and the “rec. Human PAPP-A IGFBP4 pIC50” value [3] is reported as 9.45 pIC50. The “rec. Human PAPP-A IGFBP5 pIC50” value [3] was 9.04 pIC50, the “A549 cells endogenous human PAPP-A pIC50” value [4] was 9.5 pIC50 and the “rec. Mouse PAPP-A IGFBP4 pIC50” value (recombinant mouse PAPPA [5]) was 9.28 pIC50. The “rec. Cyno PAPP-A IGFBP4 pIC50” value [6] was 9.85 pIC50.

B3: TPP-12683 (antibody, human IgG1, kappa, V domains shown)
VH: QLQLQESGPGLVKPSETLSLTCTVSGGSISSSSYNWGWIRQPPGKGLEWIGSISSSGSTYFNPSLKSRVTISVDTSKNQFSLKLSSVTAADTAVYYCARSGYRPSFYAMDAWGQGTTVTVSS
VL: DIQLTQSPSSVSASVGDRVTITCRASQDISYWLAWYQQKPGKAPKLLIYAASSLQSGVPSRFSGSGSGTDFTLTISSLQPEDFATYYCQQAYLLHTFGGGTKVEIKR
B3 was tested, and the “PAPP-A cleavage of IGFBP-4 Mean pIC50” value [1] was 8.8 pIC50, the “PAPP-A cleavage of IGFBP-5 Mean pIC50” value [7] was 8.69 pIC50 and the “rec. Human PAPP-A IGFBP4 pIC50” value [3] was 8.84 pIC50. For the same binder, the “rec. Human PAPP-A IGFBP5 pIC50” value [3] was 8.81 pIC50, the “A549 cells endogenous human PAPP-A pIC50” value [4] was 8.44 pIC50 and the “rec. Mouse PAPP-A IGFBP4 pIC50” value (recombinant mouse PAPPA [5]) was 8.88 pIC50. The “rec. Cyno PAPP-A IGFBP4 pIC50” value [6] was 8.48 pIC50.

B4: TPP-12743 (antibody, human IgG1, kappa, V domains shown)
VH: QVQLVQSGAEVKKPGASVKVSCKASGYTFTSYAMHWVRQAPGQRLEWMGWMNAGTGATKSSQKFQGRVTITRDTSASTAYMELSSLRSEDTAVYYCARGPSLETPTTFGMDVWGQGTTVTVSS
VL: DIQMTQSPSSVSASVGDRVTITCRASQGISRWLAWYQQKPGKAPKLLIYAASSLQSGVPSRFSGSGSGTDFTLTISSLQPEDFATYYCQQENAYPFTFGGGTKVEIKR
B4 was tested, and the “PAPP-A cleavage of IGFBP-4 Mean pIC50” value [1] was 10 pIC50, the “PAPP-A cleavage of IGFBP-5 Mean pIC50” value [7] was 10.4 pIC50 and the “rec. Human PAPP-A IGFBP4 pIC50” value [3] was 9.36 pIC50. The “rec. Human PAPP-A IGFBP5 pIC50” value [3] was 9.66 pIC50, the “A549 cells endogenous human PAPP-A pIC50” value [4] was 9.76 pIC50 and the “rec. Cyno PAPP-A IGFBP4 pIC50” value [6] was 10 pIC50.

B5: TPP-12708 (antibody, human IgG1, kappa, V domains shown)
VH: B4 VH with M51I, S60Y, S61A, Q62R, L102M, F108Y, D111E
VL: B4 VL with A50S, A51T, S56L, A93D
B5 was tested, and the “PAPP-A cleavage of IGFBP-4 Mean pIC50” value [1] was 10.2 pIC50, the “PAPP-A cleavage of IGFBP-5 Mean pIC50” value [7] was 11.1 pIC50 and the “rec. Human PAPP-A IGFBP4 pIC50” value [3] was 9.59 pIC50. The “rec. Human PAPP-A IGFBP5 pIC50” value [3] was 9.92 pIC50, the “A549 cells endogenous human PAPP-A pIC50” value [4] was 9.86 pIC50 and the “rec. Cyno PAPP-A IGFBP4 pIC50” value [6] was 9.7 pIC50.

B6: TPP-12792 (antibody, human IgG1, kappa, V domains shown)
VH: QLQLQESGPGLVKPSETLSLTCTVSGGSISSSDYYWGWIRQPPGKGLEWIGSIFYSGSTYYNPSLKSRVTISVDTSKNQFSLKLSSVTAADTAVYYCARATTSSSADYWGQGTLVTVSS
VL: B4 VL with L54V, E91G, A93V, Y94P, F96L
In the case of B6, the “PAPP-A cleavage of IGFBP-4 Mean pIC50” value [1] is reported as 9.53 pIC50, the “PAPP-A cleavage of IGFBP-5 Mean pIC50” value [7] is reported as 9.78 pIC50 and the “rec. Human PAPP-A IGFBP4 pIC50” value [3] is reported as 9.18 pIC50. For the same binder, the “rec. Human PAPP-A IGFBP5 pIC50” value [3] was 9.35 pIC50, the “A549 cells endogenous human PAPP-A pIC50” value [4] was 8.92 pIC50 and the “rec. Cyno PAPP-A IGFBP4 pIC50” value [6] was 9.23 pIC50.

B7: TPP-12744 (antibody, human IgG1, kappa, V domains shown)
VH: B4 VH with L102M
VL: B4 VL
notes: human IgG1/kappa, Fc-disabled (L235A, G237A)
In the case of B7, the “PAPP-A cleavage of IGFBP-4 Mean pIC50” value [1] is reported as 10 pIC50, the “PAPP-A cleavage of IGFBP-5 Mean pIC50” value [7] is reported as 10.7 pIC50 and the “EC50 (read off the curve)” value [2] is reported as roughly 1 nM. The Kd [8] was 0.21 nM, the koff [8] was 0.000393 s⁻¹ and the kon [8] was 1.87e+06 M⁻¹ s⁻¹. For the same binder, the Kd [9] was 0.127 nM, the koff [9] was 0.000319 s⁻¹ and the kon [9] was 2.51e+06 M⁻¹ s⁻¹. The Kd [10] was 0.161 nM, the koff [10] was 0.000433 s⁻¹ and the kon [10] was 2.68e+06 M⁻¹ s⁻¹. The “IC50, PAPPA-mediated cleavage of human IGFBP2, cell-free, Western blot” value [11] was 1.39 nM, the “EC50, increase of intact IGFBP4 in A549 cell supernatant (ELISA)” value [12] was 0.8 nM and the “EC50, increase of intact IGFBP4 in ADPKD patient derived cystic 9-7 cells (ELISA)” value [12] was 0.4 nM. For the same binder, the “IC50, decrease of IGFBP4-Ct fragments in 9-7 cells (ELISA)” value [12] was 0.02 nM, the “IC50, decrease of IGFBP4-Ct fragments in A549 cell supernatant (ELISA)” value [12] was 0.8 nM and the “IC50, decrease of free-IGF-1 in A549 cell supernatant (ELISA)” value [12] was 0.03 nM. For the same binder, the “pEC50, increase of intact IGFBP4 in 9-7 cells (ELISA)” value [12] was 9.41 pEC50, the “pEC50, increase of intact IGFBP4 in A549 cell supernatant (ELISA)” value [12] was 9.09 pEC50 and the “pIC50, decrease of IGFBP4-Ct fragments in 9-7 cells (ELISA)” value [12] was 10.6 pIC50. The “pIC50, decrease of IGFBP4-Ct fragments in A549 cell supernatant (ELISA)” value [12] was 9.07 pIC50, the “pIC50, decrease of free-IGF-1 in A549 cell supernatant (ELISA)” value [12] was 10.5 pIC50 and the “rec. Human PAPP-A IGFBP4 pIC50” value [3] was 9.46 pIC50. For the same binder, the “rec. Human PAPP-A IGFBP5 pIC50” value [3] was 9.81 pIC50, the “A549 cells endogenous human PAPP-A pIC50” value [4] was 9.49 pIC50 and the “rec. Cyno PAPP-A IGFBP4 pIC50” value [6] was 9.56 pIC50. B7: no binding (rat PAPPA); no binding (recombinant mouse PAPPA [13]).

B8: TPP-12801 (antibody, human IgG1, kappa, V domains shown)
VH: B6 VH
VL: B4 VL with I29V, E91G, A93V, Y94P, F96L
For B8, the “PAPP-A cleavage of IGFBP-4 Mean pIC50” value [1] was 8.96 pIC50, the “PAPP-A cleavage of IGFBP-5 Mean pIC50” value [7] was 9.1 pIC50 and the “rec. Human PAPP-A IGFBP4 pIC50” value [3] was 9.22 pIC50. The “rec. Human PAPP-A IGFBP5 pIC50” value [3] was 9.05 pIC50, the “A549 cells endogenous human PAPP-A pIC50” value [4] was 9.33 pIC50 and the “rec. Cyno PAPP-A IGFBP4 pIC50” value [6] was 9.76 pIC50.
